How the values were obtained:
[1] = molecular target: recombinant NKp46 (Raman spectroscopy) (UniProt O76036); assay: Raman spectroscopy
[2] = molecular target: Myc-tagged extracellular domain of NKp46 (human) (UniProt O76036); assay: MST

UniProt O76036, sequence (O76036 22-258): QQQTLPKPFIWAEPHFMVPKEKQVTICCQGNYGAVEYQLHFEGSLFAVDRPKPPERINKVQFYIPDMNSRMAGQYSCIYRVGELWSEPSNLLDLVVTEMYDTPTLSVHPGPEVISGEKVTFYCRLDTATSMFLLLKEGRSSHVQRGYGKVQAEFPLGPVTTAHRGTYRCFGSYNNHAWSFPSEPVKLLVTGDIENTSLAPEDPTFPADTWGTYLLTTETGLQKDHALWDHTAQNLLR

| Kd [1] [µM] | Kd [2] [µM] | Substance |
| --- | --- | --- |
| 9.95 |  | recombinant CRT (Raman spectroscopy) (from UniProt P27797 18-417) (natural protein) |
|  | 41.2 | CRT P domain fused at the C-terminus to the Fc domain of human Ig (Fc fusion) |

From paper doi:10.1101/2021.10.31.466654
